{"source": "patent US8637452B2", "about": "“Water soluble membrane proteins and methods for the preparation and use thereof” (Massachusetts Institute of Technology, priority 2011, dated 2014)", "molecules": {"B1": {"name": "CXCR4 QTY: Water-soluble human CXCR4 variant with 29 QTY mutations in the seven transmembrane helices (SEQ ID NO: 10) (protein)", "chain": "MEGISIYTSDNYTEEMGSGDYDSMKEPCFREENANYNKTFLPTIYSIIYQTGTVGNGLVILVMGYQKKLRSMTDKYRLHLSTADLQFVTTLPYWATDATANWYFGNFLCKAVHVIYTVNLYSSVLILAFISLDRYLAIVHATNSQRPRKLLAEKVVYVGVWTPAQLLTTPDYTFANVSEADDRYICDRFYPNDLWVVVFQFQHIMVGLILPGIVILSCYCIIISKLSHSKGHQKRKALKTTTTLIQAFFACWQPYYTGISIDSYILLEIIKQGCEFENTVHKWISTTEAQAFYHCCTNPTQYAYLGAKFKTSAQHALTSVSRGSSLKILSKGKRGGHSSVSTESESSSSFHS"}}, "target": "T1, SDF1α (Homo sapiens, UniProt P61073, F172Y/F264Y/F293Y/F304Y/F36Y/F49Y/F93Y/I162T/I169T/I173T/I243T/I257T/I286T/I300T/I39T/I53T/I89T/L165Q/L246Q/L253Q/L290Q/L297T/L301Q/L50Q/L86Q/V242T/V82T/V96T/V99T)", "T1 construct": "HUMAN CXCR4 QTY; made in house; host or cells: cell-free production", "test": "Surface Plasmon Resonance analysis of CXCR4 QTY (Biacore, receptor captured on 1D4 Ab, SDF1α injected)", "type": "binding", "details": "SPR, Biacore 2000, CM5 chip; SDF1α 0-1 μM; HBST with 0.2% BSA and 0.2% Fos-Choline-14", "protocol": "Human CXCR4 and our CXCR4 QTY proteins obtained from cell-free production and purified with affinity beads were captured in different flow cells on a Biacore CM5 chip with immobilized 1D4 Antibody (Ab) in a Biacore 2000 instrument. Different concentrations of SDF1α, the native ligand for hCXCR4 receptor, were injected over the surface to allow interaction with the receptors.\nBiacore CM5 chips were activated with 1-Ethyl-3-[3-dimethylaminopropyl]carbodiimide hydrochloride and N-hydroxysuccinimide according to the manufacturer's protocol prior to a 7 minute injection at 5 μl/min of 1D4 Ab to flow cells 2-4 at 70 μg/ml followed by deactivating of the surfaces in all the 4 flow cells with a short Ethanolamine pulse. The immobilization level of 1D4 Ab range from 8000-25000 Response units (RU).\nCXCR4 and CXCR4 QTY mutant are captured by the 1D4 Ab on the CM5 chip by injecting a 0.1 mg/m1 sample of the protein to a single flow cell at 5 μl/min during 15 min with both sample and running buffer containing 0.2% Fos-Choline-14 detergent. The receptors were captured to a level of 800-3000 RU.\nSDF1α were injected over all flow cells to allow interaction with both the receptors and flow cell one is used as a reference cell without any immobilized protein. […]", "data": [{"molecule": "B1", "values": [{"measurement": "ligand binding (SDF1α)", "result": "shows ligand binding"}]}]}
